Laboratory results reported in the DeepSol protein solubility set.

Test: soluble on expression in E. coli; label from the status in PepcDB or PDB records

Sequence | soluble on expression in E. coli
MRSKFFSFFTRASRPMKAIPPKIWFETQLKGSGLDKKFQIDELIETQSSVRVFANKKYLPDTETINEALTKVTAVNVSGDKSGYFQNGLPFPNEAGYFEKIPVGHPELLSPIERLTGSKKIVSSHSLVTASGGYPLTNPLLPYRKPIRVSIFSLAGPSFENNYLHYRLFLLDSVQKIIDSPLFSHLHDGLPIQFDEAKKELGEYDTNKLMARIRLGFPYLARFSSGGFYPSFSKSNAIIFLSEAYFRYQLEDVSLLLASVNQTGKETGKAALLKATAVGMGFFAKIDCGYDIQHIIFPYYLRAYKKLLSEHKFPWIAKIEFPIFNEIQQEQFDSIFEDYDGPTKVYRSTRDVLEFREEEIEKYLPAAINPSDAFALTGNEWGYGSVESMIGNNSSIRFDQVHHMNPLILDPSHHVEAQINKDHGVELTVNPRPQSSSSIKL | not soluble
MRSQRIVHIVSCHAEGEVGDVIVGGVAAPPGATLWEQSRWIARDQDLRNFVLNEPRGGVFRHANLLVPAKDPRAQMGWIIMEPADTPPMSGSNSLCVATVLLDSGILPMREPLTRLLLEAPGGLIEARAECRDGKAERVEIRNVPSFADRLDAWIEVEGLGSLQVDTAYGGDSFVIADARRLGFALRADEAAELVATGLKITHAANEQLGFRHPTNPDWDHLSFCQLAAPPERRDGVLGANNAVVIRPGKIDRSPCGTGCSARMAVLQAKGQLRVGERFVGRSIIGSEFHCHIESLTELGGRPAILPCLSGRAWITGIHQYLLDPDDPWPQGYRLSDTWPGGHC | not soluble
MRTIPPDDVYISSTLPFEETTTEMMTTMETSTMTEKVCPEMPATTCMDLIKLGAKLELAEVDGCQVVQCTGGQIPRLITRNSVFSPKLYAGLSDATIVFPVPPTTLAGFGGKSFFDYYGLICDTFNGNFYWTMTKYPDGLIDLGGGQPILGSDGSYDGKQAPIEQVDCQEPK | not soluble
MRTLFFIPSMGSVRLPLIDFLVKNDIEYVILSRRNHVAVQREIALDMFLEMKDYDTLAFLDEDVVPIEIDFQKVEAKFNEGYDVVCGYYYLKTLRGYSVYRKDWEKEIFDGEVNGCGLGFTFIKREFLEKIKRPAFLAFKPIESPHWIGEDVYFFSTHKPRTYALSSLKAYHFIDERLALSPDRKLILQNDHVARIKHHHHHH | soluble
MRTPIALSLALCLSLFPSFASAEEAAPEGEGANKPVYVDLTPALVGNYGSGPRLQYYKADIALQVADKDAATKVEHHEPLIRNQLIMLFAQQTDQSLGTVEAKESLRQEALKQVQQTLEQEEGKPLVTDLLFNNLIVQP | not soluble
MRVFYDKDCDLSIIQGKKVAIIGYGSQGHAHACNLKDSGVDVTVGLRSGSATVAKAEAHGLKVADVKTAVAAADVVMILTPDEFQGRLYKEEIEPNLKKGATLAFAHGFSIHYNQVVPRADLDVIMIAPKAPGHTVRSEFVKGGGIPDLIAIYQDASGNAKNVALSYACGVGGGRTGIIETTFKDETETDLFGEQAVLCGGCVELVKAGFETLVEAGYAPEMAYFECLHELKLIVDLMYEGGIANMNYSISNNAEYGEYVTGPEVINAESRAAMRNALKRIQDGEYAKMFITEGAANYPSMTAYRRNNAAHPIEQIGEKLRAMMPWIAANKIVDKSKN | soluble
MRVGIPTETKNNEFRVAITPAGVAELTRRGHEVLIQAGAGEGSAITDADFKAAGAQLVGTADQVWADADLLLKVKEPIAAEYGRLRHGQILFTFLHLAASRACTDALLDSGTTSIAYETVQTADGALPLLAPMSEVAGRLAAQVGAYHLMRTQGGRGVLMGGVPGVEPADVVVIGAGTAGYNAARIANGMGATVTVLDINIDKLRQLDAEFCGRIHTRYSSAYELEGAVKRADLVIGAVLVPGAKAPKLVSNSLVAHMKPGAVLVDIAIDQGGCFEGSRPTTYDHPTFAVHDTLFYCVANMPASVPKTSTYALTNATMPYVLELADHGWRAACRSNPALAKGLSTHEGALLSERVATDLGVPFTEPASVLAHHHHHH | soluble
MRVISGSKKGRSLKAVAGTSTRPTTDKVKESIFNMIGPYFDGGRGLDLFAGSGGLGIEALSRGFEHCIFVDRDFKAIQTVKSNLKTLELTKHAQVYRNDAERALHAAAKRETGFRGIFLDPPYKEQKLKALLTLIDEYQMLEEDGFIVAEHDREVELPETVEILLEHHHHHH | soluble
MRVLFIGDVFGQPGRRVLQNHLPTIRPQFDFVIVNMENSAGGFGMHRDAARGALEAGAGCLTLGNHAWHHKDIYPMLSEDTYPIVRPLNYADPGTPGVGWRTFDVNGEKLTVVNLLGRVFMEAVDNPFRTMDALLERDDLGTVFVDFHAEATSEKEAMGWHLAGRVAAVIGTHTHVPTADTRILKGGTAYQTDAGFTGPHDSIIGSAIEGPLQRFLTERPHRYGVAEGRAELNGVALHFEGGKATAAERYRFIED | soluble
MRVLITGGNRGLGLQLVKVFHENGHIIYPLVRTEVAVTQLKQMFSCRCFPILADLAADESTEQIKKQLEEYTEYMDLVINNAGITGKETEVLHTNSEELTDLFNIHCLGVIRAVKGTYMALAKSDHPRIINVSSRLGSLHKMANKEFPQGHFSYSYRIAKAAQNMLTLCLQQEFENKGISVTAIHPGKLKTEIGAFDANMTPAEGTKNIYDWVIDSNEDLSGQFIEPGVGEIKW | not soluble
MRVLLVTGKLAEEMVRKYGKGADVKVYNIDIAAFITPSMLENEDFSGYDLVLVPGLTYSHNWEDFERRKGVKVRLGPIHAYDLQHVLKLIGKVEFSHKIPACRLVESLRAEETLREIDALDEDCAFEIGGVKVGGSSRMKVVAEIASFCDFDDLRAKIDHYTESGADIIDIGVPLEFDKEWLHKTLKIAVDHSKLPLSIDTFSSKAIEIAVKHGVDMVMSISMDNLKALDLIENQAVVVVERDIDGLLNLVERVGEKVERVIADPILDPPLKVAESIGRYAEFRRRDEKTPLLFGAGNVTELSDADSIGINALLAFIAEELKCNLLFTTEASPKTFGSVRELNIASYLAKAAKIRNSPPKDAGVSLLALKEKVRYEERVELDDFVRAEETREFVRDPLGDFIIQVVDGKIVCKHDRMTIVGEKAKEVADTAIKNNLLSRLDHAAYLGRELMKAEIAALLKKSYIQDRELNFGFYQK | not soluble
MRVVIVGAGLAGLAAAVDLVDAGHRVEIYESRPFVGGKVSSWQDADGNHIEMGLHVFFYNYANLFELMTKVGAIANLLPKEHTHTFINRGGQVGELDFRFPLGAPFNGLKAFFTTRQLSAADKFFNAIALGTSPVVRGLVDYEGAMRQIRALDCMSFAEWFRRHGGSENSLKRLWNPISYALGFIDTEHMSARCMLTIFMMFAAKTTASRLNMLKGSPAEYLLKPLVNYIEARGAKIHLRRRVKEILFRGEDASTWRVEGLVIPRGEALETVTADAYLCACDVPGIQRLIPEAWRSHPTFDNIFKLEAVPVATVQLRFDGWVTELQDPRKQKQVAATGIDNLLYTADADFSCFADLALTSPADYYREGQGSLLQVVLTPGDPFIKASNEEIAQHVLRQVHELFPSSRHLNMTWYSVVKLAQSLYREAPGMDPYRPPQKTPVPNFYLAGSYTQQDYIDSMEGATMSGRQAAQAILAGGHPLEHHHHHH | soluble
MRWKLLFALLAALLLAACSQSSERVVIGSKPFNEQYILANMIAILLEENGYKAEVKEGLGGTLVNYEALKRNDIQLYVEYTGTAYNVILRKQPPELWDQQYIFDEVKKGLLEADGVVVAAKLGFRDDYALAVRADWAEENGVEKISDLAEFADQLVFGSDPEFASRPDGLPQIKKVYGFEFKEVKQMEPTLMYEAIKNKQVDVIPAYTTDSRVDLFNLKILEDDKGALPPYDAIIIVNGNTAKDEKLISVLKLLEDRIDTDTMRALNYQYDVEKKDAREIAMSFLKEQGLVK | not soluble
MRWNICVVGAGKIGQMIAALLKTSSNYSVTVADHDLAALAVLNRMGVATKQVDAKDEAGLAKALGGFDAVISAAPFFLTPIIAKAAKAAGAHYFDLTEDVAATNAVRALAEDSQT | soluble
MRWVSALEKRNFLTSFLHNHRLKHPDARFVLKYLLQHPHLLENVQFTETEQKQGRWLIISTAMAEEEGLVFYRRGQKSTSLAAIMGDLALHPNEPLYLTLHFPGKARNFSYLRLIDHQAFENVRRHERHEKMAKAAEQVLDEALKRHEVSILKMQIDQALDRKDMEWFQMLTEQLKKYEGQS | not soluble
MRYDVSSNSLYVFCSIVLFSDLRFRIGGKYMAERHMFLKKDPSKENSIIVSNIPAFVGEGVVLAIIDQFASFEVEESFVQRSNTADNSLSQGQLTMSITFDKPEAVIQTLALCQDVGPFTITDFLEDPEFPSVLKDSTTLYRKLFPSEEQIQEMADTYVERYDTEQTEARKEAKRKYSEPDEDGWITVTKAKKAAKSVKLKKEDVPLIGGLNNKKKKVDLAYYTFQIKKNRQEKAQELLKKFEEDRKRITQLKQARNFKPI | not soluble
MRYLSNLLCLTLTFIVCFGAERDADEEAYVLMNLLKQSIDMDQTEALPGFVSRDFTYDTCKGIWNRDKYMEYLKVFSSRPDGGMQPMSTDWKVTNAHFNDNTLYFNIHNYNQHLAIYPDLEFEAKKIGKDERYILTRGKISKCGTLEKEY | not soluble
MSAAEEVDGLGVVRPHYGSVLDNERLTAEEMDERRRQNVAYEYLCHLEEAKRWMEACLGEDLPPTTELEEGLRNGVYLAKLGNFFSPKVVSLKKIYDREQTRYKATGLHFRHTDNVIQWLNAMDEIGLPKIFYPETTDIYDRKNMPRCIYCIHALSLYLFKLGLAPQIQDLYGKVDFTEEEINNMKIELEKYGIQMPAFSKIGGILANELSVDEAALHAAVIAINEAIDRRVAADTFTALKNPNAMLVNLEEGLAPTYQDVLYQAKQDKMTNAKNRTENSDRERDVYEELLTQAEIQGNVNKVNTSSALADISLALEQGCAVTLLKALQSLALGLRGLQTQNSDWYMKQLQSDLQQKRQSGQTDPLQKEEVQAGVDAANSAAQQYQRRKRPLAPGHRSVQGRAVVALCH | soluble
MSAATKKRYITNKVGSEFYELVDEDIIAQVRQSRGNNLHEVLDQNGDSYVVSMPTKFRKSVWLRRDQFVVVRPITEGDKVKGEIEYILDQDNVLYIRELGKWPTCFEENALKMTREAKRGQTSDKMIDDDMLPPSESEEEDESEGEETYDEDDVDDEEEEEFDTYNPNRMQAPSK | not soluble
MSADNLLLDFTSPGAIPPDPAEVVRRVVDETQTTMRALESLLENERIEDMTGWRLLAMFYLATDRLNDLAKIEKQYKSITGVSLSADLKQKYPQWFNGEAVSHPVVFEIPKKITAAALPDSIIIQRGQCSPGGILLDFSQVQEIDNDGLKKLAQLFSSLAQENTRPKLRQADRFITCLQNKAETGTGTRAIWDVLFAYERFRDDREAFEEKAIKFAVLYGISPPSWE | not soluble
MSAEVTLHDNIHYDLSADCQHCFGLCCVALPYAKSADFAFDKDGGTPCRNLQSNYQCSIHKDLREKGFRGCSAYECFGAGQKVSQITYEGKDWRNSPETANQMFDVFPIMQQLHEMLWYLHEALSIDIAKPIHSELRTTFEKIERLTRLSKERLLTLQVDEHRAEVNEWLLKTSELVRAQARHPKLPKKVSRGSVLIGAKLKGLDLRGANLRGALLIAADLRNADLRMTDFIGADMRDADLSGADLTGSIFLTQAQVNAANGDSNTKLPLSVRTPAHWKLEHHHHHH | not soluble
